From publication doi:10.1101/2025.06.14.659664 (bioRxiv, 2025)

Biological target: UbcH8 (UniProt O14933 1-153)
Experiment: NMR titration

Sequence of UbcH8 (O14933 whole entry): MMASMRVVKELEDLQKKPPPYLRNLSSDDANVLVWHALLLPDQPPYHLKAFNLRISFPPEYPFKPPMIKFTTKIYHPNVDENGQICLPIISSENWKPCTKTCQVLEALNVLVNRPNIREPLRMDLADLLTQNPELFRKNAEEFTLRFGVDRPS

Row | Binder | binding result
1 | GBI-Uba7-UFD fusion protein (human Uba7 ubiquitin-fold domain, residues 903-1011), wild type (domain or fragment, UniProt P41226 903-1011, looked up) IQTFHHLKWTSWDRLKVPAGQPERTLESLLAHLQEQHGLRVRILLHGSALLYAAGWSPEKQAQHLPLRVTELVQQLTGQAPAPGQRVLVLELSCEGDDEDTAFPPLHYE | binds
2 | GBI-Uba7-UFD A1004C mutant (domain or fragment, human, UniProt P41226 903-1011, looked up) IQTFHHLKWTSWDRLKVPAGQPERTLESLLAHLQEQHGLRVRILLHGSALLYAAGWSPEKQAQHLPLRVTELVQQLTGQAPAPGQRVLVLELSCEGDDEDTCFPPLHYE | binds
